These results are taken from the supplement of paper PMC9112550, “Optimization of the antimicrobial peptide Bac7 by deep mutational scanning” (BMC Biology, 2022).
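Also: peptides expressed intracellularly from a pBAD plasmid library in pooled LB shake-flask culture, induced with 0.3% L-arabinose, DNA abundance read by NGS, three biological replicates, DESeq2 with apeglm shrinkage.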

This data set has as its system Escherichia coli TOP10. In words: shrunken log2 fold change of peptide-encoding DNA abundance (4.5 h post-induction vs induction); higher = less antimicrobial activity (less host growth inhibition). Conditions: time post-induction: 4.5 h; library: site-saturation at positions 5, 18, 19, 20.
Regarding RRIRVRPPRLPRPRPRPKIPPRP, the “shrunken log2 fold change” value is 0.0285. The result for RRIRQRPPRLPRPRPRPPLPPRP reads 0.424. The result for RRIRHRPPRLPRPRPRPVFNPRP reads -0.532; that for RRIRDRPPRLPRPRPRPGQYPRP, -0.0267.

Turning to RRIRYRPPRLPRPRPRPFIMPRP, the “shrunken log2 fold change” value is -0.313. The result for RRIRIRPPRLPRPRPRPKGNPRP reads -0.459; that for RRIRARPPRLPRPRPRPAWWPRP, 0.895.

Consider RRIRVRPPRLPRPRPRPVVCPRP, for which the “shrunken log2 fold change” value stood at 0.251. The result for RRIRKRPPRLPRPRPRPNVSPRP reads 0.106; that for RRIRRRPPRLPRPRPRPELRPRP, 0.463.

As to RRIRQRPPRLPRPRPRPLGPPRP, the “shrunken log2 fold change” value was 0.23. The result for RRIRVRPPRLPRPRPRPNRRPRP reads -0.0977. The result for RRIRWRPPRLPRPRPRPPKRPRP reads 0.388.

Regarding RRIRGRPPRLPRPRPRPYAGPRP, the “shrunken log2 fold change” value was -0.0412. The result for RRIRLRPPRLPRPRPRPIAWPRP reads 0.0351; that for RRIRWRPPRLPRPRPRPVCTPRP, 0.26; that for RRIRQRPPRLPRPRPRPQIRPRP, -0.307. The result for RRIRDRPPRLPRPRPRPDSHPRP reads 0.0162; that for RRIRSRPPRLPRPRPRPGYGPRP, -0.0163. Under RRIRVRPPRLPRPRPRPGHPPRP stands 0.146; under RRIRSRPPRLPRPRPRPHLMPRP, -0.0307. For RRIRQRPPRLPRPRPRPVRLPRP, the “shrunken log2 fold change” value is -0.0825. Turning to RRIRGRPPRLPRPRPRPQSIPRP, the “shrunken log2 fold change” value amounted to 0.108. Consider RRIRPRPPRLPRPRPRPELQPRP, for which the “shrunken log2 fold change” value was 0.345. The result for RRIRPRPPRLPRPRPRPPKFPRP reads 0.0927; that for RRIRSRPPRLPRPRPRPGKCPRP, 0.0216.

With RRIRRRPPRLPRPRPRPTPGPRP, the “shrunken log2 fold change” value amounted to 1.11. Under RRIRHRPPRLPRPRPRPPQEPRP stands -0.0115; under RRIRYRPPRLPRPRPRPVASPRP, -0.163. With RRIRYRPPRLPRPRPRPVSVPRP, the “shrunken log2 fold change” value was -0.0879. The result for RRIRCRPPRLPRPRPRPWNLPRP reads -0.19; that for RRIRRRPPRLPRPRPRPIPAPRP, 0.804; that for RRIRIRPPRLPRPRPRPKGFPRP, 0.0347. For RRIRHRPPRLPRPRPRPKEYPRP, the “shrunken log2 fold change” value is -0.0937. In the case of RRIRNRPPRLPRPRPRPECKPRP, the “shrunken log2 fold change” value worked out at 0.0615. As to RRIRTRPPRLPRPRPRPVWHPRP, the “shrunken log2 fold change” value was 0.095. With RRIRTRPPRLPRPRPRPDWIPRP, the “shrunken log2 fold change” value was -0.0498. For RRIRNRPPRLPRPRPRPSYAPRP, the “shrunken log2 fold change” value was -0.387. Under RRIRYRPPRLPRPRPRPCARPRP stands -0.0708; under RRIRFRPPRLPRPRPRPNDQPRP, -0.0705.

On to RRIRMRPPRLPRPRPRPGYSPRP, for which the “shrunken log2 fold change” value is -0.185. Under RRIRERPPRLPRPRPRPSFKPRP stands -0.401; under RRIRQRPPRLPRPRPRPNSPPRP, -0.0178; under RRIRQRPPRLPRPRPRPSHRPRP, -0.0821. The result for RRIRFRPPRLPRPRPRPQLFPRP reads 0.104; that for RRIRSRPPRLPRPRPRPFVMPRP, -0.0833; that for RRIRPRPPRLPRPRPRPGFTPRP, -0.139.

In the case of RRIRKRPPRLPRPRPRPVAVPRP, the “shrunken log2 fold change” value was determined as 0.138.

RRIRNRPPRLPRPRPRPFWTPRP: the “shrunken log2 fold change” value is -0.132. Consider RRIRVRPPRLPRPRPRPGLIPRP, for which the “shrunken log2 fold change” value was -0.359. Turning to RRIRARPPRLPRPRPRPYNCPRP, the “shrunken log2 fold change” value was -0.0254.

Turning to RRIRCRPPRLPRPRPRPYLHPRP, the “shrunken log2 fold change” value is -1.18.

Turning to RRIRQRPPRLPRPRPRPVGDPRP, the “shrunken log2 fold change” value amounted to 0.203. Regarding RRIRGRPPRLPRPRPRPSAHPRP, the “shrunken log2 fold change” value is 1.12. On to RRIRMRPPRLPRPRPRPYYWPRP, for which the “shrunken log2 fold change” value was -0.123. Under RRIRHRPPRLPRPRPRPFNHPRP stands -0.372. Under RRIRDRPPRLPRPRPRPTTMPRP stands 0.0275; under RRIRQRPPRLPRPRPRPKVWPRP, 0.153. For RRIRCRPPRLPRPRPRPIGEPRP, the “shrunken log2 fold change” value is -0.0453. In the case of RRIRTRPPRLPRPRPRPWLGPRP, the “shrunken log2 fold change” value is -0.00306. Under RRIRKRPPRLPRPRPRPNQRPRP stands -0.192. The result for RRIRNRPPRLPRPRPRPGDKPRP reads -0.105; that for RRIRRRPPRLPRPRPRPRLNPRP, 0.522; that for RRIRRRPPRLPRPRPRPEQHPRP, 0.592.

RRIRCRPPRLPRPRPRPSLCPRP: the “shrunken log2 fold change” value was -0.49. Consider RRIRQRPPRLPRPRPRPMRVPRP, for which the “shrunken log2 fold change” value came to 0.189. Take RRIRNRPPRLPRPRPRPPNWPRP: the “shrunken log2 fold change” value amounted to 0.217. Take RRIRKRPPRLPRPRPRPGEIPRP: the “shrunken log2 fold change” value is 0.0945. In the case of RRIRYRPPRLPRPRPRPYADPRP, the “shrunken log2 fold change” value was -0.136. The result for RRIRWRPPRLPRPRPRPMLGPRP reads 0.464; that for RRIRIRPPRLPRPRPRPCNCPRP, 0.174.

Turning to RRIRERPPRLPRPRPRPCEIPRP, the “shrunken log2 fold change” value is -0.318.

Consider RRIRARPPRLPRPRPRPNHFPRP, for which the “shrunken log2 fold change” value is -0.0665. For the sequence RRIRARPPRLPRPRPRPMAHPRP, the “shrunken log2 fold change” value was 0.733. For the sequence RRIRIRPPRLPRPRPRPEWDPRP, the “shrunken log2 fold change” value worked out at 0.054.

For the sequence RRIRSRPPRLPRPRPRPSHAPRP, the “shrunken log2 fold change” value is -0.449. On to RRIRLRPPRLPRPRPRPHIWPRP, for which the “shrunken log2 fold change” value was -0.278. As to RRIRGRPPRLPRPRPRPFRIPRP, the “shrunken log2 fold change” value is -0.212.

Turning to RRIRNRPPRLPRPRPRPQHYPRP, the “shrunken log2 fold change” value is -0.319.

As to RRIRRRPPRLPRPRPRPKNSPRP, the “shrunken log2 fold change” value is -0.0537.

As to RRIRMRPPRLPRPRPRPPIVPRP, the “shrunken log2 fold change” value is -0.112. As for RRIRPRPPRLPRPRPRPREAPRP, the “shrunken log2 fold change” value was found to be 0.44. The result for RRIRPRPPRLPRPRPRPNFCPRP reads 0.257. The result for RRIRRRPPRLPRPRPRPNNEPRP reads -0.246. The result for RRIRSRPPRLPRPRPRPYHSPRP reads -0.181. RRIRVRPPRLPRPRPRPRQHPRP: the “shrunken log2 fold change” value stood at 0.174. RRIRHRPPRLPRPRPRPSESPRP: the “shrunken log2 fold change” value was -0.232. On to RRIRLRPPRLPRPRPRPYYAPRP, for which the “shrunken log2 fold change” value was -0.484.

Take RRIRTRPPRLPRPRPRPRRYPRP: the “shrunken log2 fold change” value is 0.108. The result for RRIRERPPRLPRPRPRPFIKPRP reads -0.16; that for RRIRRRPPRLPRPRPRPLYVPRP, -0.379.

As to RRIRQRPPRLPRPRPRPQRPPRP, the “shrunken log2 fold change” value came to 0.0996. The result for RRIRCRPPRLPRPRPRPSEKPRP reads -0.188.

Consider RRIRGRPPRLPRPRPRPMACPRP, for which the “shrunken log2 fold change” value is -0.119. The result for RRIRIRPPRLPRPRPRPNFHPRP reads -0.52. The result for RRIRTRPPRLPRPRPRPENCPRP reads 0.072; that for RRIRLRPPRLPRPRPRPSRHPRP, -0.415; that for RRIRSRPPRLPRPRPRPNHCPRP, -0.415. The result for RRIRTRPPRLPRPRPRPIGDPRP reads -0.293; that for RRIRLRPPRLPRPRPRPKAVPRP, -0.0189.

For the sequence RRIRGRPPRLPRPRPRPIIAPRP, the “shrunken log2 fold change” value worked out at 0.571. Under RRIRIRPPRLPRPRPRPHWFPRP stands 0.022; under RRIRDRPPRLPRPRPRPRQWPRP, 0.36; under RRIRGRPPRLPRPRPRPEASPRP, 0.708.

As to RRIRHRPPRLPRPRPRPFDRPRP, the “shrunken log2 fold change” value was -0.172. As for RRIRNRPPRLPRPRPRPWINPRP, the “shrunken log2 fold change” value was -0.0185.

For the sequence RRIRCRPPRLPRPRPRPIGWPRP, the “shrunken log2 fold change” value is -0.0817. The result for RRIRRRPPRLPRPRPRPCHPPRP reads -0.0611; that for RRIRNRPPRLPRPRPRPKGEPRP, -0.00804; that for RRIRWRPPRLPRPRPRPLSQPRP, 0.0157. Consider RRIRYRPPRLPRPRPRPFCTPRP, for which the “shrunken log2 fold change” value is -0.425. As to RRIRQRPPRLPRPRPRPLMMPRP, the “shrunken log2 fold change” value is -0.0501.

For RRIRNRPPRLPRPRPRPWKDPRP, the “shrunken log2 fold change” value is -0.00136. With RRIRDRPPRLPRPRPRPPQYPRP, the “shrunken log2 fold change” value was -0.0943. For RRIRERPPRLPRPRPRPGRGPRP, the “shrunken log2 fold change” value was 0.436.

Consider RRIRLRPPRLPRPRPRPWACPRP, for which the “shrunken log2 fold change” value was -0.0699.

RRIRWRPPRLPRPRPRPDAEPRP: the “shrunken log2 fold change” value is 1.89.

With RRIRIRPPRLPRPRPRPNDQPRP, the “shrunken log2 fold change” value was -0.43. RRIRCRPPRLPRPRPRPKWWPRP: the “shrunken log2 fold change” value is 0.0539. The result for RRIRYRPPRLPRPRPRPQPWPRP reads -0.149; that for RRIRNRPPRLPRPRPRPMYWPRP, -0.000123.

Take RRIRTRPPRLPRPRPRPMKYPRP: the “shrunken log2 fold change” value was -0.0467.

With RRIRPRPPRLPRPRPRPCKGPRP, the “shrunken log2 fold change” value is -0.252. For RRIRRRPPRLPRPRPRPIADPRP, the “shrunken log2 fold change” value is -0.0686.

Take RRIRKRPPRLPRPRPRPITHPRP: the “shrunken log2 fold change” value was -0.0971.
